Numbering of substitutions follows the chain as printed. Where two headings read alike, the source gives them in different places. Each block holds one binder with its values, some of them ahead of it.
Tests used:
鼠CLDN18.2(mCLDN18.2) = biological target: T1, 鼠CLDN18.2(mCLDN18.2) (mouse, UniProt P56857 10-264); experiment: cell ELISA on fixed mCLDN18.2+cell
T1 construct: also called mouse claudin-18 isoform A2.1; mCLDN18.2+cell
T1 chain: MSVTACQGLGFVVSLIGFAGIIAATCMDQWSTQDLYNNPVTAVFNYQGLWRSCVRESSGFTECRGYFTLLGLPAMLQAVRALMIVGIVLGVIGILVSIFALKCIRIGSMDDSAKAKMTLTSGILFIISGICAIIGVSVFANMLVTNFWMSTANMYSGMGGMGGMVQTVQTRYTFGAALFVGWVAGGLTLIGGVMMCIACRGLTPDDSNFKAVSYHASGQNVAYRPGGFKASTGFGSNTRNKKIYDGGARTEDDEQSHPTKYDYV

鼠CLDN18.1(mCLDN18.1) = biological target: T2, 鼠CLDN18.1(mCLDN18.1) (mouse, UniProt P56857 1-264); experiment: cell ELISA on fixed mCLDN18.1+cell
T2 construct: also called mouse claudin-18 isoform A1.1; mCLDN18.1+cell
T2 sequence: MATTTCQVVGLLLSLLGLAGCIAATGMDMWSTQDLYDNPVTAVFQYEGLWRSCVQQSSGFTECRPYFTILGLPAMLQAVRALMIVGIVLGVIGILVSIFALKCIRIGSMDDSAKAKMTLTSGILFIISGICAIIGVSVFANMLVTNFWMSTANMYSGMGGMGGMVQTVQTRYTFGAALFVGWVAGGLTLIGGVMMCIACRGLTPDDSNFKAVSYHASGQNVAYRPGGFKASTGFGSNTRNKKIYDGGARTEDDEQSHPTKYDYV

人CLDN18.1(hCLDN18.1) = biological target: T3, 人CLDN18.1(hCLDN18.1) (human, UniProt P56856 1-261); experiment: cell ELISA on fixed hCLDN18.1+cell
T3 construct: also called human claudin-18 isoform 1; 密蛋白18.1
T3 sequence: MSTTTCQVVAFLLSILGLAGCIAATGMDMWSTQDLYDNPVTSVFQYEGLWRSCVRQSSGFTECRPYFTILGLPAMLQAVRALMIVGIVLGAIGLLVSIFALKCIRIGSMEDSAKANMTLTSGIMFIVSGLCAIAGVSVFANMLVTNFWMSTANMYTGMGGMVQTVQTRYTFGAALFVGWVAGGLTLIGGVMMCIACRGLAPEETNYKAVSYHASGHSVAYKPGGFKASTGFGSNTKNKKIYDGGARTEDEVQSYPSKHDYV

人CLDN18.2(hCLDN18.2) [1] = biological target: T4, 人CLDN18.2(hCLDN18.2) (human, UniProt P56856 24-261); experiment: cell-based or functional assay
人CLDN18.2(hCLDN18.2) [2] = biological target: T4, 人CLDN18.2(hCLDN18.2); experiment: cell-based or functional assay; remark: listed apart in the source

fold better binding (EC50) than Ref (鼠CLDN18.2(mCLDN18.2)): > 4 fold | fold higher Emax than Ref (鼠CLDN18.2(mCLDN18.2)): > 1 fold | binding result (鼠CLDN18.1(mCLDN18.1)): no binding (tested: 200nM) | binding result (人CLDN18.1(hCLDN18.1)): no binding (tested: 200nM)
B1: anti-hCLDN18.2鼠源抗体mab5b (antibody, human IgG1, kappa, V domains shown)
VH: QVQLQQSGAELIGPGTSVKVSCKASGYAFSNYLIEWVKQRPEQGLEWIGLINPGSGGTNYNEKFKGKATLTADKSSSTAYMQLSSLTSDDSAVYFCARVYYGNSFAYWGQGTLVTVSA
VL: DIVMTQSPSSLTVTAGEKVTMSCKSSQSLLNSGNQKNYLTWYQQKPGQPPKLLIYWASTRESGVPDRFTGSGSGTHFTLTISSVQAEDLAVYYCQNDYFYPFTFGSGTKLEKKR

CDC EC50 (LDH release, human serum, hCLDN18.2+ target cells) (人CLDN18.2(hCLDN18.2) [1]): 1.3 µg/mL | CDC EC50 (LDH release, human serum, hCLDN18.2+ target cells) (人CLDN18.2(hCLDN18.2) [2]): 0.255 µg/mL
B2: Ab24抗体 (antibody, human IgG1, kappa, V domains shown)
VH: QVQLVQSGAEVKKPGSSVKVSCKASGYAFSNYLIEWVRQAPGQGLEWMGLINPGSGGTNYNEKFKGKVTITADKSTSTAYMELSSLRSEDTAVYYCARVYYGNTFAYWGQGTLVTVSS
VL: DIVMTQSPDSLAVSLGERATINCKSSQSLLNTGNNKNYLAWYQQKPGQPPKLLIYWASTRESGVPDRFSGSGSGTDFTLTISSLQAEDVAVYYCQNDYFYPFTFGQGTKLEIKR

CDC EC50 (LDH release, human serum, hCLDN18.2+ target cells) (人CLDN18.2(hCLDN18.2) [1]): 2.12 µg/mL
B3: Ab51抗体 (antibody, human IgG1, kappa, V domains shown)
VH: B2 VH with K67R, K74E
VL: B2 VL

CDC EC50 (LDH release, human serum, hCLDN18.2+ target cells) (人CLDN18.2(hCLDN18.2) [1]): 1.75 µg/mL
B4: Ab36抗体 (antibody, human IgG1, kappa, V domains shown)
VH: B2 VH with R38K, M48I, V68A
VL: B2 VL with N22S

Source: patent publication CN111110862A (dated 2020)
